Patent US20050239141A1

T1: rat CD5 antigen present on rat T cells (rat) (UniProt P51882)
T1 sequence (looked up): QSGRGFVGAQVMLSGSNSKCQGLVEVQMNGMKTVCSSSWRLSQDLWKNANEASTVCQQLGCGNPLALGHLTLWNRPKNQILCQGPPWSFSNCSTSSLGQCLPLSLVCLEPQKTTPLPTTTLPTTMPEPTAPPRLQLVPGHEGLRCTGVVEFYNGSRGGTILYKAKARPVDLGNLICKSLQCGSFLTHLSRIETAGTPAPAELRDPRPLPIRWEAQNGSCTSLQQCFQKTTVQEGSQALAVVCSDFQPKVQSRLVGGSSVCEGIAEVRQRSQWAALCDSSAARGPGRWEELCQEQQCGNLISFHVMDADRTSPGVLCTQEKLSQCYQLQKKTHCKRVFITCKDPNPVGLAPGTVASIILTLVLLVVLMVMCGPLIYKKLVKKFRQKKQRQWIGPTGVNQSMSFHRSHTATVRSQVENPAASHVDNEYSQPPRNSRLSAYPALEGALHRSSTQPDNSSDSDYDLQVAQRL


Assays:
[1] = target: T1, rat CD5 antigen present on rat T cells (rat); assay: flow cytometry, blood T cells of a rat 3 h after 0.5 mg/kg i.v.
[2] = target: T1, rat CD5 antigen present on rat T cells (rat); assay: flow cytometry, spleen T cells of a rat 3 h after 0.5 mg/kg i.v.
[3] = target: T1, rat CD5 antigen present on rat T cells (rat); assay: flow cytometry, lymph node T cells of a rat 3 h after 0.5 mg/kg i.v.
[4] = target: T1, rat CD5 antigen present on rat T cells (rat); assay: flow cytometry, spleen T cells of a rat 3 h after 0.5 mg/kg i.v. (isotype matched negative control)
[5] = target: T1, rat CD5 antigen present on rat T cells (rat); assay: flow cytometry, blood T cells of a rat 3 h after 0.5 mg/kg i.v. (isotype matched negative control)
[6] = target: T1, rat CD5 antigen present on rat T cells (rat); assay: flow cytometry, lymph node T cells of a rat 3 h after 0.5 mg/kg i.v. (isotype matched negative control)

% of CD4 cells also positive for mouse IgG1 [1] | % of CD8 cells also positive for mouse IgG1 [1] | % of CD4 cells also positive for mouse IgG1 [2] | % of CD8 cells also positive for mouse IgG1 [2] | % of CD4 cells also positive for mouse IgG1 [3] | % of CD8 cells also positive for mouse IgG1 [3] | % of CD4 cells also positive for mouse IgG1 [4] | % of CD8 cells also positive for mouse IgG1 [4] | % of CD4 cells also positive for mouse IgG1 [5] | % of CD8 cells also positive for mouse IgG1 [5] | % of CD4 cells also positive for mouse IgG1 [6] | % of CD8 cells also positive for mouse IgG1 [6] | Molecule
96.2% | 70.2% | 84.8% | 73.6% | 96.2% | 96.8% | – | – | – | – | – | – | OX19 MoAb (antibody)
– | – | – | – | – | – | 14.8% | 20.6% | 6.7% | 5.7% | 4.2% | 6.5% | MoAb H65 (antibody, V domains shown) VH: QIQLVQSGPELKKPGETVKISCKASGYTFTNYGMNWVKQAPGKGLRWMGWINTHTGEPTYADDFKGRFAFSLETSASTAYLQINNLKNEDTATYFCTRRGYDWYFDVWGAGTTVTVSS VL: DIKMTQSPSSMYASLGERVTITCKASQDINSYLSWFQQKPGKSPKTLIYRANRLVDGVPSRFSGSGSGQDYSLTISSLDYEDMGIYYCQQYDESPWTFGGGTKLEIK
